Test results as given in patent US12018084B2, “Anti-CXCR2 antibodies and uses thereof” (Cephalon LLC, priority 2018, dated 2024).

Experiments:
[1] = target: T1, Human CXCR2 (Homo sapiens, UniProt P25025); assay: Tango CXCR2-bla U2OS cell-based β-arrestin recruitment assay; parameters: The beta-arrestin/TEV protease fusion and the beta-lactamase reporter are separate parts of the cell line; details: CXCL1 or CXCL8 as agonist
T1 sequence (P25025 1-360): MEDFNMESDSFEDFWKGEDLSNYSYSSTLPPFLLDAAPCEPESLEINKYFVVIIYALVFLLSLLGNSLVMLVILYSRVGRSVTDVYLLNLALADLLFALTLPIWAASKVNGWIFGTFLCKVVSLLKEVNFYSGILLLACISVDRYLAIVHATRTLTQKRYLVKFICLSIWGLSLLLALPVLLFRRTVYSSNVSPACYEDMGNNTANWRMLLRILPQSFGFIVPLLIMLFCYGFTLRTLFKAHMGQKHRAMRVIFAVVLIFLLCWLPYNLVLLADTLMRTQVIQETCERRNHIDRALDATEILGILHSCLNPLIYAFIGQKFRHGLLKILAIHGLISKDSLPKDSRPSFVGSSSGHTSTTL
Excerpt: Cells were thawed, propagated, cultured and frozen according to the manufacturer's directions.
Preparation of Tango™ CXCR2-bla U2OS cells for use in cell-based assays: The manufacturer's protocol was altered to make use of 96-well plates instead of 384-well plates. Briefly, dividing cells were harvested one day prior to use. Cells were harvested and resuspended in assay medium (100% FreeStyle™ Expression Medium; Life Technologies; Cat #12338-018) at a viable cell density of 312,500 cells/mL. 128 μL of cell suspension was added per well in 96-well black-walled, clear bottom tissue culture-treated plates. Cells were incubated for 16-20 hrs at 37° C. in an atmosphere of 5% CO2 prior to use in assays.
Tango™ assay procedure: Assays were set up and run as described in the manufacturer's protocol. For antagonist assays, agonists were used at concentrations in the EC50-EC80 range. Assays were read using a FlexStation® 3 (Molecular Devices) fluorescence plate reader configured with the parameters given in Table 4. The blue/green emission ratio for each well was calculated by dividing the blue emission values by the green emission values. All inhibition curves were fitted using a four-parameter dose-response using GraphPad Prism™ (Version 7.01).
The Human CXCR2 Tango™ cell line was used to assess the ability of antibody BKO-4A8-101c to inhibit β-arrestin recruitment to agonist-activated CXCR2. All human ELR+ chemokine CXCR2 ligands were tested in antagonist dose response assays using calculated EC50 values of agonist.
The commercially available reporter cell line Tango™ CXCR2-bla U2OS (ThermoFisher Scientific) was used to assess the ability of the anti-CXCR2 antibodies to inhibit β-arrestin recruitment to agonist-activated CXCR2. Agonists were provided at their assay EC50 concentration for antagonist assays.

[2] = target: T2, Murine CXCR2 (Mus musculus, UniProt P35343); assay: cELISA of hybridoma supernatants on cells transfected with murine CXCR2; type: binding; details: hybridoma supernatant; fluorescence units relative to positive control (100%)
T2 construct: expressed in transfected cells
T2 sequence (P35343 1-359): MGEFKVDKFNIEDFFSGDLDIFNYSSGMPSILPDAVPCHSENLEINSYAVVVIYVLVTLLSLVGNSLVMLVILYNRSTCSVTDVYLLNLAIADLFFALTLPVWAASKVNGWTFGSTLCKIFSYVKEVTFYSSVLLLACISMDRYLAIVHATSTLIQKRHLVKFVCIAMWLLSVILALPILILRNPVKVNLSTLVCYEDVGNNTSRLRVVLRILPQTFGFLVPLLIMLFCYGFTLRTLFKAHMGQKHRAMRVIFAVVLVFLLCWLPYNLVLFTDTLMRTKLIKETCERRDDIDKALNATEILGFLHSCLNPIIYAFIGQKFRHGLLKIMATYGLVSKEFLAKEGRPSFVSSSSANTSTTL

[3] = target: T1, Human CXCR2; assay: cELISA of hybridoma supernatants on cells transfected with human CXCR2; type: binding; parameters: host or cells: Expi293F cells, vector pTT5; details: hybridoma supernatant; fluorescence units relative to positive control (100%)
Method: To generate hybridomas which produced monoclonal antibodies to human CXCR2, splenocytes and/or lymph node cells from animals with the highest anti-CXCR2 titres were isolated and fused to mouse myeloma cells (ATCC, CRL-1580). Cells were plated at approximately 1×10^5 cells/mL in flat bottom microtiter plates, followed by a two week incubation in selective medium (10% FCS and 1×HAT (Sigma)). Hybridomas were expanded by serial passage through four media changes in 96-well plates (96-well stages 1 to 4), then, where required, expanded into T25 and T75 flasks. […] Bound antibodies were detected using a goat anti-rat IgG-HRP (Southern Biotech, #3030-05) secondary antibody.
A panel of hybridomas was generated using lymph nodes and spleen cells from the transgenic rats engineered to express human variable region sequences. A cellular ELISA (cELISA) was used to detect human CXCR2 binding activity in supernatants taken during the expansion process for the hybridomas (Table 5). Hybridomas that retained expression of antibodies that bound CXCR2 after several passages were selected for DNA sequencing.

Row | Molecule | potency compared to the parental antibody [1] | Murine CXCR2 % Positive [2] | Human CXCR2 % Positive [3]
1 | 103c: VH SEQ ID NO: 163, VL SEQ ID NO: 110 (antibody, V domains shown, 4A8 VH Variant 103 M34Q_A40P_R53S_R55G_N56S_ R75K; 4A8 VL variant c D41G_N52S_N94S) VH: EVQLLESGGGLVQPGGSLRLSCAASGFTFSSSTQSWVRQPPGKGLEWVSAISGSGGSTYYADSVKGRFTISRDNSKNTLYLQMNSLRAEDTAVYYCAIQMGYWGQGILVTVSS VL: QSALTQPPSASGSPGQSVTISCIGTSSDVGGYNYVSWYQQHPGKAPKLMIYEVSKRPSGVPDRFSGSKSGNTASLTVSGLQAEDEADYYCSSYAGSNNFGVFGGGTKLTVL | reduced potency |  | 
2 | BKO-1D1: VH SEQ ID NO: 5, VL SEQ ID NO: 6 (antibody, V domains shown, BKO_1D1_VH; BKO_1D1_VL) VH: EVQLLESGGGLVQPGGSLRLSCAASKLTFKNSAMSWVRQAPGKGLEWVSAITGSGGRTYYADSVKGRFTISRDNSKNTLYLQMNSLRAEDTAIYYCAIQMGYWGQGILVTVSS VL: QSALTQPPSASGSPGQSVTISCTGTSSDVGGYNYVSWYQQHPGKAPKLMIYEVNKRPSGVPARFSGSKSGNTASLTVSGLQAEDEADYYCSSYAGSNNFGVFGGGTKLTVL |  | 7% | 67%
3 | BKO-9A8: VH SEQ ID NO: 47, VL SEQ ID NO: 48 (antibody, V domains shown, BKO_9A8_H3_F03_VH; BKO_9A8_L1_H02_VL) VH: EVQLLESGGGLVQTGGSLRLSCAASGFTFSSNTMSWVRQAPGKGLEWVSAISGSGGRTYYVDSVKGRFTISRDNSKNTLYLQMHSLRAEDTAVYYCAIQLGSWGQGILVTVSS VL: QSALTQPPSASGSPGQSVTISCTGTSSDVGAYNYVSWYQQHPGKAPKLMIYEVTKRPSGVPDRFSGSKSGNTASLTVSGLQAEDEADYYCSSYAGNNNFGVFGGGTKLTVL |  | 8% | 124%
4 | 105c: VH SEQ ID NO: 165, VL SEQ ID NO: 110 (antibody, V domains shown, 4A8 VH Variant 105 M34Q_A40P_R53S_R55G_N56S_ R75K_M96A; 4A8 VL variant c D41G_N52S_N94S) VH: EVQLLESGGGLVQPGGSLRLSCAASGFTFSSSTQSWVRQPPGKGLEWVSAISGSGGSTYYADSVKGRFTISRDNSKNTLYLQMNSLRAEDTAVYYCAIQAGYWGQGILVTVSS VL: QSALTQPPSASGSPGQSVTISCIGTSSDVGGYNYVSWYQQHPGKAPKLMIYEVSKRPSGVPDRFSGSKSGNTASLTVSGLQAEDEADYYCSSYAGSNNFGVFGGGTKLTVL | reduced potency |  | 
5 | 104c: VH SEQ ID NO: 164, VL SEQ ID NO: 110 (antibody, V domains shown, 4A8 VH Variant 104 M34Q_A40P_R53S_R55G_N56S_ R75K_M96K; 4A8 VL variant c D41G_N52S_N94S) VH: EVQLLESGGGLVQPGGSLRLSCAASGFTFSSSTQSWVRQPPGKGLEWVSAISGSGGSTYYADSVKGRFTISRDNSKNTLYLQMNSLRAEDTAVYYCAIQKGYWGQGILVTVSS VL: QSALTQPPSASGSPGQSVTISCIGTSSDVGGYNYVSWYQQHPGKAPKLMIYEVSKRPSGVPDRFSGSKSGNTASLTVSGLQAEDEADYYCSSYAGSNNFGVFGGGTKLTVL | reduced potency |  | 
6 | BKO-2D8: VH SEQ ID NO: 9, VL SEQ ID NO: 10 (antibody, V domains shown, BKO_2D8_VH; BKO_2D8_VL) VH: EVQLLESGGGLVQPGGSLRLSCAASGYTFTSSTMSWVRQAPGKGLEWVTAISGRGGRTYYADSVKGRFTISRDNSKNTLYLQMNSLRAEDTAVYYCAIQLGNWGQGILVTVSS VL: QSALTQPPSASGSPGQSVTISCTGTSSDIGGYNYVSWYQQHPGKAPKLVIYEVNMRPSGVPARFSGSKSGNTASLTVSGLQAEDEADYYCSSYAGNDNFGVFGGGTKLSVL |  | 7% | 100%
7 | BKO-3F4: VH SEQ ID NO: 15, VL SEQ ID NO: 16 (antibody, V domains shown, BKO_3F4_VH; BKO_3F4_L11_A11_VL) VH: EVQLLESGGGLVQPGGSLRLSCAASGLTFSSYAMSWVRQAPGKGLEWVSAISGSGGKIYYADSVKGRFTISRDNSKNTLYLQMNSLRAEDTAVYYCAIQVGYWGQGTLVTVSS VL: QSALTQPPSASGSPGQSVTMSCTGTSSDVGGYNYVTWYQQHPGKAPKLMIYEVSKRPSGVPARFSGSKSGNTASLTVSGLQAEDEADYYCSSYAGPNNFGVFGGGTKLTVL |  | 42% | 86%
8 | BKO-10G10: VH SEQ ID NO: 51, VL SEQ ID NO: 52 (antibody, V domains shown, BKO_10G10_VH; BKO_10G10_VL) VH: QLQLQESGPGLVKPSETLSLTCTVSGGSIRRSSYYWGWIRQPPGKGLEWIGSFYNSGNTYYKPSLKSRVAISVDTPKNQFSLKLSSVTAADTAVYYCARGYSSGGFDPWGQGTLVTVSS VL: QSALTQPASVSGSPGQSITISCTGTSSDVGGYNYVSWCQQHPGKAPKIMIFDVSNRPSGVSNRFSGSKSGNTASLTISGLQAEDEADYYCSSYTSSSTWVFGGGTRLTVL |  | 4% | 89%
9 | BKO-4F10: VH SEQ ID NO: 19, VL SEQ ID NO: 20 (antibody, V domains shown, BKO_4F10_VH; BKO_4F10_VL) VH: QVQLVQSGAEVKKPGASVKVSCKASGYTFTGYYIHWVRQAPGQGLEWMGRFNPNNGGTNYAQRFQGRVTMTRDTSISTAYMELSRLRSDDTAVYYCARGPTIRLWFDNWFDSWGQGTLVTVSS VL: QSALTQPASVSGSPGQSITISCTGTSSDVGGYNYVSWYQQHPGKAPKLMIYDVSNRPSGISNRFSGSKSGNTASLTISGLQAEDEADYYCSSYTSSSTWVFGGGTKLTVL |  | 7% | 118%
10 | BKO-8H10: VH SEQ ID NO: 43, VL SEQ ID NO: 44 (antibody, V domains shown, BKO_8H10_VH; BKO_8H10_VL) VH: QVQLVQSGAEVKKPGASVKVSCKASGYTFTGYYIHWVRQAPGQGLEWMGRIKPDSGGTNYAQKFQGRVTMTRDTSITTAYMELSRLRSDDTAVYYCARGGSGWDYWGQGTLVTVSS VL: QSALTQPPSASGSPGQSVTISFTGTSRDVGDYNYVSWYQQHPGKAPKLMIYEVNKRPSGVPDRFSGSKSGNTASLTVSGLQAEDEADYYCSSYAGSNTYVFGTGTKVTVL |  | 8% | 81%
11 | BKO-1B10: VH SEQ ID NO: 3, VL SEQ ID NO: 4 (antibody, V domains shown, BKO_1B10_VH; BKO_1B10_VL) VH: QLQLQESGPGLVKPSETLSLTCTVSGGSIRTSSYYWGWIRQPPGKGLEYIGSIYYSGTTYYNPSLKSRVTMSVDTSKNQFSLKLSSVTAADTAVYYCARHGRVREVPPFDYWGQGTLVTVSS VL: SSELTQDPAVSVALGQTVRITCQGDSLRYYYASWYQQKPGQAPVLVIYDENSRPSGIPDRFSGSSSGNTASLRITGTQAEDEADYYCNSRDTSGNHWAFGGGTKLTVL |  | 4% | 75%
